# B1: PGC-1α: S333A (protein)
# parent chain: MAWDMCSQDSVWSDIECAALVGEDQPLCPDLPELDLSELDVNDLDTDSFLGGLKWCSDQSEIISNQYNNEPANIFEKIDEENEANLLAVLTETLDSLPVDEDGLPSFDALTDGAVTTDNEASPSSMPDGTPPPQEAEEPSLLKKLLLAPANTQLSYNECSGLSTQNHAANHTHRIRTNPAIVKTENSWSNKAKSICQQQKPQRRPCSELLKYLTTNDDPPHTKPTENRNSSRDKCASKKKSHTQPQSQHAQAKPTTLSLPLTPESPNDPKGSPFENKTIERTLSVELSGTAGLTPPTTPPHKANQDNPFKASPKLKPSCKTVVPPPTKRARYSECSGTQGSHSTKKGPEQSELYAQLSKSSGLSRGHEERKTKRPSLRLFGDHDYCQSLNSKTDILINISQELQDSRQLDFKDASCDWQGHICSSTDSGQCYLRETLEASKQVSPCSTRKQLQDQEIRAELNKHFGHPCQAVFDDKSDKTSELRDGDFSNEQFSKLPVFINSGLAMDGLFDDSEDESDKLSYPWDGTQPYSLFDVSPSCSSFNSPCRDSVSPPKSLFSQRPQRMRSRSRSFSRHRSCSRSPYSRSRSRSPGSRSSSRSCYYYESSHYRHRTHRNSPLYVRSRSRSPYSRRPRYDSYEAYEHERLKRDEYRKEHEKRESERAKQRERQKQKAIEERRVIYVGKIRPDTTRTELRDRFEVFGEIEECTVNLRDDGDSYGFITYRYTCDAFAALENGYTLRRSNETDFELYFCGRKQFFKSNYADLDTNSDDFDPASTKSKYDSLDFDSLLKEAQRSLRR
# B2: PGC-1α: OGT overexpression (protein)
# parent chain: B1 parent chain
# Assays:
# [1] = IP, anti-ubiquitin blot with MG132, HEK 293T; conditions: control: wild type
# [2] = transcriptional activity assay; conditions: glycan lost; control: wild type
# [3] = Figure S3B, method not described in text; conditions: glycan lost; control: wild type
Protein,other: ubiquitination ([1]; glycan lost),other: transcriptional activity [2],other: phosphorylation [3],other: ubiquitination ([1]; glycan gained)
B1,increases,no change,no change,–
B2,–,–,–,decreases

# Reference: paper PMC3480732
